# Tested on: IgE antibody in the serum of a fish-allergic patient
# Assay: Immunoblotting of two-dimensional electrophoresis patterns of fish meat proteins with patient serum
# Assay type: binding, human
# Conditions: spots in two-dimensional electrophoresis gel of proteins in fish; patients diagnosed with immediate-type allergy
# Description: Proteins contained in fish were analyzed by the aforementioned technique to identify antigens of an allergy to fish. To be specific, proteins were extracted from fish meat and subjected to two-dimensional electrophoresis under the conditions described below.
# The electrophoresis in the first dimension was isoelectric focusing, which was performed using isoelectric focusing gels with a gel-strip length of 5 to 10 cm and a gel pH range of 3 to 10. The pH gradient of the gels in the direction of electrophoresis was as follows: with the total gel-strip length being taken as 1, the gel-strip length up to pH 5 was “a=0.15 to 0.3”, the gel-strip length from pH 5 to 7 was “b=0.4 to 0.7”, and the gel-strip length above pH 7 was “c=0.15 to 0.3”. More specifically, the isoelectric focusing was performed using the IPG gels, Immobiline Drystrip (pH3-10NL), produced by GE Healthcare Bio-Sciences Corporation (hereinafter abbreviated as “GE”). The electrophoresis system used was IPGphor produced by GE. The maximum current of the electrophoresis system was limited to 75 μA per gel strip. The voltage program adopted to perform the first-dimensional isoelectric focusing was as follows: (1) a constant voltage step was performed at a constant voltage of 300 V until the volt-hours reached 750 Vhr (the current variation width during electrophoresis for 30 minutes before the end of this step was 5 μA); (2) the voltage was increased gradually to 1000 V for 300 Vhr; (3) the voltage was further increased gradually to 5000 V for 4500 Vhr; and then (4) the voltage was held at a constant voltage of 5000 V until the total Vhr reached 12000.
# The electrophoresis in the second dimension was SDS-PAGE, which was performed using polyacrylamide gels whose gel concentration at the distal end in the direction of electrophoresis was set to 3 to 6% and whose gel concentration at the proximal end was set to a higher value than that at the distal end. More specifically, the SDS-PAGE was performed using NuPAGE 4-12% Bris-Tris Gels (IPG well, Mini, 1 mm) produced by Life Technologies. The electrophoresis system used was XCell SureLock Mini-Cell produced by Life Technologies. The electrophoresis was run at a constant voltage of 200 V for about 45 minutes using an electrophoresis buffer composed of 50 mM MOPS, 50 mM Tris base, 0.1% (w/v) SDS and 1 mM EDTA.
# Identification of antigens by immunoblotting was carried out by taking all the steps up to the step of “Second-dimensional SDS-PAGE” as described above in Example 1, followed by the steps of “Transfer to membrane”, “Immunoblotting” and “Analysis” as described below.
# To be specific, proteins in the second-dimensional electrophoresis gels were transferred to a membrane (PVDF membrane) according to the following procedure. • (1) The PVDF membrane was immersed in 100% methanol followed by milliQ water, and then moved into the transfer buffer to hydrophilize the PVDF membrane. • (2) After sponge, filter paper, the second-dimensional electrophoresis gels treated by second-dimensional SDS-PAGE, the hydrophilized PVDF membrane, filter paper, and sponge were put in place in this order, the transfer system was energized at a constant voltage of 30 V for one hour. Immunoblotting
# Immunoblotting of the membrane was carried out using, as a primary antibody, a serum sample from patient 1 with a fish allergy or a serum sample from a non-fish-allergic subject. This fish-allergic patient 1 was a patient diagnosed with immediate-type allergy to fish. […]
row,specific binding to IgE antibodies from fish-allergic patients,Molecule
1,specific binding to IgE antibodies,"Alpha-1,4-glucan phosphorylase (protein, Alpha-1,4 glucan phosphorylase) MSKPLSDHDRKKQISVRGLAGVENVAELKVAFNRHLHFTLVKDRNVASKRDYYFALANTVRDHLVGRWIRTQQYYYEKDPKRVYYISLEFYMGRTLQNTMVNLALENACDEAIYQLGLDMEELEDMEEDAGLGNGGLGRLAACFLDSMASLGLAAYGYGIRYEFGIFNQKIVNGWQVEEADDWLRYGNPWEKARPEYMRPVKFYGRTEHTPEGVKWVDTQVVLALPYDTPIPGYRNNIVNTMRLWSAKAPCDFNLKDFNVGGYIQAVLDRNLCENISRVLYPNDNFFEGKELRLKQEYFVVAATLQDIVRRFKASKFGSREIVRTDFAQLPNKVAIQLNDTHPAMAIPELMRVLVDEEKLEWDKAWDVCVRTCAYTNHTVLPEALERWPIDLFHHLLPRHLEIIYEINRRFLQYVASKFPGDNDRLRRMSLIEEGECKKVNMAHMCIVGSHAVNGVARIHSEILVATLFKDFYELDPHKFQNKTNGITPRRWLVMCNPGLAEVIAERIGEEFVRDLDQLKKLLKFIDDDAFIRDIAKVKQENKLKFAVHLEEHYKVKINPQSMFDFQVKRIHEYKRQLLNCLHMITYYNRIKKEPNKHWTPRTIMVGGKAAPGYHTAKMIIRLITAIGEVVNHDPVIGDRLKVIFLENYRVTLAEKAIPSADLSEQISTAGTEASGTGNMKFMLNGALTIGTMDGANVEMAEEAGEKNLFIFGMRVEEVDAMDAGKGYHASEYYNRIPELKQAMDQISGGFFSHKQPDLFKELVDLLMHHDRFKVFADYEAYIKSQDKVNELYKKPKEWTKMVIHNIAGCGKFSSDRTISQYAREIWGMEPSLEKIPAPDEQLK"
2,specific binding to IgE antibodies,"Serotransferrin (protein, Serotransferrin) MKLLLVSALLGCFATVYAAPAEGMVRWCVKSEKELKKCHDLAANVAGFSCVRRDDSLECIQAIKREEADAITLDGGDIYIAGLHNYNLQPIIAEDYGEDSDTCYYAVAVAKKGTEFGFLDLRGKKSCHTGLGKSAGWNIPIGTLVTVGQIQWAGIEDRPVESAVSDFFNASCAPGANRDSQLCQLCMGDCSRSHNEPYYDYSGAFQCLKDGAGEVAFIKHLTVPAAEKASYELLCKDNTRAPIDSYKTCHLARVPAHAVVSRKDPRLANLIYSKLMAVTNFNLFSSDGYAAKNLMFKDSTQNLVQLPMTTDSFLYLGAEYMSTIRSLTKAQATGVTSRAIKWCAVGHKEKVKCDAWTINSFTDGDSRIECQDAPTVDECIKKIMRKEADAIAVDGGEVFTAGKCGLVPVMVEQYDEVRCSAPGEASSYFAVAVAKRGSGLTWTTLKGKRSCHTGLGRTAGWNIPMGLIHRRTMNCDFTTYFSKGCAPGFEVDSPFCAQCKGSGKSVGGDGSKCKASSEEQYYGYNGAFRCLVEDAGDVAFIKHTIVPEMTDGSGPVWAQNLMSSDFELLCQDGTTKPVTHFRECHLAKVPAHAVITRPESRGEVVSILLEQQARFGSSGSDSSFNMFKPDFGKNLLFKDSTKCLQEIPSGTKFQGFLGEEYMIAMQSLRECSNSTSDLEKACTFHSC"
3,specific binding to IgE antibodies,"EEF1A2 binding protein-like (protein, EEF1A2 binding protein-like) MWKKKSKLTDQTATGQVGIKKRSKVPGVMITQYVEKIPDGKSHPDFTRKPIALTIQEGKFAFFKALVIGDPEPTVTWGRNNGDVSDTSKYVTKYDPATREHLFEMANVKPEQADTYKCFAANEFGRAVVTVVLNVIEVGFKKAQADSQVQPEAAVADFKSVLKRKSKIQPKMEKKEDGEIDPRFWELLISADKKDYESLMLEFGVTDFRFMLKTLNEIKKEREEEQAQFIENLANLKPIEVGPDGCATFSIDMDLIEQSSRIFLYKDGVMIPYSKELGDTIKHSLKIVGRKYQFSIRDLFPDDAGLYQVDVEDVNVFSTDFKIPMVDFLVKIQECKAMEREDAVFECVLSQPFGKIMWVGKNLPLEAGDKYDIEVSEDKLIHRLIIKDVAMVDKGIYAAVAGIKSCNAFLVVEADKGEPGKKKQRKTTRAGGAGVDLTAIAQEQAVKNTADREVLKEKVKAINDERAANATAAPETSAEAKAKVKVVEASQTGAPKQGPAVKGSDHKSVDNEGYSIKSGLSDVFALRGKKGELVCEMSHEVDGAWFKDGEKLSTTDGIAIVKDGTRHTMTIHSSSEDDTGVYHIEAGGFKSEAKVTVGELPAIDADDLHKFSKPVTIKVGQNASWKMPYTPQDNLEVKWFKDGKELKDGGGVKLVKEVKHSRLLLRECLRSDAGEIKIQLKNPFGTIEATSRLIVLDKPGPPEGPVEILETTSTVIELQWGAPKDDGGSPVTNYIIERQQLGQTVWKKMGDVAADKTTYRDRNVVHGKLYIYNIYAVNPEGTSDALQTEETMAGVLIFAGRPGAPKVVSASKTCINLKWEPPEDDGGIKIDGYQLEKRKKDTAQWIALNPVTEPIEVLEYAVKDVVEGAEYEFRVSAINVSGAGEFSLPSVMVTAKNPNMRPTFKDPEDFMVIRAGNSVRIKVLYEAEPPPEITWMKDNEPVSSFIQIINTEGCSQLVIPSTKRSDSGNYTIVAKNKVGEASFDIEVLVTDEPKPPGAVELEQIVHGKVIVSWEASPDQELDNRLYYMVAEHDSSTRMWHTVADRIFDNSYTANNIMPGREYHFKIYAKNDMGMSDPSMSPTWGINSNRIPINTNTPVEVSFEKPPSVLVPLKMHSPPKGFQMYMTCAIRGCPTPSVTWHLNNVCINGDSNYYITNSYGVCSMYILRVRPKDAGEYKVVAVNSFGKAECSTKLVVKD"
